Biological target: demineralized, guanidine-extracted bovine collagen carrier matrix material (bovine) (UniProt P02453)
Experiment: OP-1 in 47.5% ethanol/0.01% TFA incubated 3 h with bovine collagen matrix; fraction bound to the matrix before lyophilization

Sequence of OP-1 (P18075 293-431 limits assumed): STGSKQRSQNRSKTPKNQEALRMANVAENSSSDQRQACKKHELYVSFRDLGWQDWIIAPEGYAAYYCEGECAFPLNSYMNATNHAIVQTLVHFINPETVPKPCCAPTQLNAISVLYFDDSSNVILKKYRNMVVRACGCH

Which % OP-1 bound at 3 hr does the source give for “OP-1 (from UniProt P18075 293-431) (ligand)” here?
Its % OP-1 bound at 3 hr is 53 to 64%.

From US6461630
